Reference: publication PMC6144819 (Nucleic Acids Research, 2018)

Target: T1, Drosophila SUMO-TRAX (WT) (Drosophila, UniProt Q9VF77 1-298)
T1 sequence (looked up): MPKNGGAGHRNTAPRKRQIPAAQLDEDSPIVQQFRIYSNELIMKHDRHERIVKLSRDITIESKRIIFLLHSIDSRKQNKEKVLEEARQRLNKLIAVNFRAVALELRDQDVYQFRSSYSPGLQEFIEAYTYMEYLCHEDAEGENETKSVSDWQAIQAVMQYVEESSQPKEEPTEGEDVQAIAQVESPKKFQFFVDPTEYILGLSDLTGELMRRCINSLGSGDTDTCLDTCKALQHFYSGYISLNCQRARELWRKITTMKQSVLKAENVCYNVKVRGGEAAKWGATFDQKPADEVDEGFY
Assay: cryo-EM structure

stoichiometry N: 1 TRAX per Translin (4:4)
B1: Drosophila Translin (natural protein, UniProt Q7JVK6 1-235, looked up)
chain: MSNFVNLDIFSNYQKYIDNEQEVRENIRIVVREIEHLSKEAQIKLQIIHSDLSQISAACGLARKQVELCAQKYQKLAELVPAGQYYRYSDHWTFITQRLIFIIALVIYLEAGFLVTRETVAEMLGLKISQSEGFHLDVEDYLLGILQLASELSRFATNSVTMGDYERPLNISHFIGDLNTGFRLLNLKNDGLRKRFDALKYDVKKIEEVVYDVSIRGLSSKEKDQQEEPAVPATE
